Experimental findings from paper PMC10174300 are described below.

This assay concerns the target T cell immunoglobulin-3 (TIM-3) (human (endogenous in CD3+ T cells from PBMCs)) (UniProt Q8TDQ0).

Sequence of Galectin-9 (O00182 whole entry): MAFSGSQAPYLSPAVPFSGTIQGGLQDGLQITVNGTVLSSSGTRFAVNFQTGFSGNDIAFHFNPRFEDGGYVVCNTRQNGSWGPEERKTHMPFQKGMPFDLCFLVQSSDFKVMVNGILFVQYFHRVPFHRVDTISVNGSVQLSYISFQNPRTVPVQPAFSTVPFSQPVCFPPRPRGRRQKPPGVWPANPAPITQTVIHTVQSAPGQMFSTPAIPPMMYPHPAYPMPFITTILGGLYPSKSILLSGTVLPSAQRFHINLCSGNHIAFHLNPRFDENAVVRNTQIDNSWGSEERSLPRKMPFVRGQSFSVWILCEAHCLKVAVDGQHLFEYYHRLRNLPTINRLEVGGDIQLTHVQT

For “Galectin-9 (from UniProt O00182 1-355) (ligand)”, the T cell proliferation (DELFIA, TRF intensity) of activated CD3+ T cells treated with Galectin-9 at 55.6 nM, against activated T cells without Galectin-9 came to 50%.
